Laboratory results from publication PMC12071944, “Interaction Between Glucagon-like Peptide 1 and Its Analogs with Amyloid-β Peptide Affects Its Fibrillation and Cytotoxicity” (International Journal of Molecular Sciences, 2025).
Values joined by “and” are separate entries in the source; they are usually repeats but may differ in a detail not shown here. Identical values can stand only once. Like-named read-outs stand apart in the source and are kept apart here.

Legend:
exenatide [1] = target: exenatide (UniProt P26349); experiment: dynamic light scattering; […] µM Exen; 25 °C; 25 mM Tris-HCl, 140 mM NaCl, 4.9 mM KCl, […] CaCl2, 1 mM MgCl2, pH 7.4; degree of multimerization MWRh/MWm
[2] = target: amyloid-β peptide, residues 1-40 (human) (UniProt P05067); experiment: BLI; Aβ40/Aβ42 immobilised on amine-reactive sensors (EDAC/sulfo-NHS), washed with 0.5% SDS; analyte 4–15 µM Exen; 25 °C; 20 mM Tris-HCl, 140 mM NaCl, 4.9 mM KCl, […] CaCl2, 1 mM MgCl2, pH 7.4; curves not fitted, KD estimated as the level of the analyte concentrations; apparent
[3] = target: amyloid-β peptide, residues 1-42 (human) (UniProt P05067); experiment: as above
[4] = target: amyloid-β peptide, residues 1-40 (human) (UniProt P05067)
[5] = target: amyloid-β peptide, residues 1-42 (human) (UniProt P05067)
exenatide [6] = target: exenatide (UniProt P26349); experiment: dynamic light scattering; 234 µM Exen; 25 °C; 25 mM Tris-HCl, 140 mM NaCl, 4.9 mM KCl, […] CaCl2, 1 mM MgCl2, pH 7.4; degree of multimerization MWRh/MWm
exenatide [7] = target: exenatide (UniProt P26349); experiment: dynamic light scattering; 29 µM Exen; 25 °C; 25 mM Tris-HCl, 140 mM NaCl, 4.9 mM KCl, […] CaCl2, 1 mM MgCl2, pH 7.4; degree of multimerization MWRh/MWm
exenatide [8] = target: exenatide (UniProt P26349); experiment: dynamic light scattering; 115 µM Exen; 25 °C; 25 mM Tris-HCl, 140 mM NaCl, 4.9 mM KCl, […] CaCl2, 1 mM MgCl2, pH 7.4; degree of multimerization MWRh/MWm
liraglutide (human) [9] = experiment: dynamic light scattering; 6 µM Lira; 25 °C; 25 mM Tris-HCl, 140 mM NaCl, 4.9 mM KCl, […] CaCl2, 1 mM MgCl2, pH 7.4; degree of multimerization MWRh/MWm
[10] = target: amyloid-β peptide, residues 1-40 (human) (UniProt P05067); experiment: BLI; Aβ40/Aβ42 immobilised on amine-reactive sensors (EDAC/sulfo-NHS), washed with 0.5% SDS; analyte 20 µM Lira; 25 °C; 20 mM Tris-HCl, 140 mM NaCl, 4.9 mM KCl, […] CaCl2, 1 mM MgCl2, pH 7.4; single binding site model (1), fitted for each analyte concentration; apparent constants
[11] = target: amyloid-β peptide, residues 1-42 (human) (UniProt P05067); experiment: as above
[12] = target: amyloid-β peptide, residues 1-40 (human) (UniProt P05067); experiment: BLI; Aβ40/Aβ42 immobilised on amine-reactive sensors (EDAC/sulfo-NHS), washed with 0.5% SDS; analyte 5 µM Lira; 25 °C; 20 mM Tris-HCl, 140 mM NaCl, 4.9 mM KCl, […] CaCl2, 1 mM MgCl2, pH 7.4; single binding site model (1), fitted for each analyte concentration; apparent constants
[13] = target: amyloid-β peptide, residues 1-42 (human) (UniProt P05067); experiment: as above
liraglutide (human) [14] = experiment: dynamic light scattering; 13 µM Lira; 25 °C; 25 mM Tris-HCl, 140 mM NaCl, 4.9 mM KCl, […] CaCl2, 1 mM MgCl2, pH 7.4; degree of multimerization MWRh/MWm
[15] = target: amyloid-β peptide, residues 1-40 (human) (UniProt P05067); experiment: SPR
[16] = target: amyloid-β peptide, residues 1-42 (human) (UniProt P05067); experiment: SPR
liraglutide (human) [17] = experiment: dynamic light scattering; 52 µM Lira; 25 °C; 25 mM Tris-HCl, 140 mM NaCl, 4.9 mM KCl, […] CaCl2, 1 mM MgCl2, pH 7.4; degree of multimerization MWRh/MWm
[18] = target: amyloid-β peptide, residues 1-40 (human) (UniProt P05067); experiment: BLI; Aβ40/Aβ42 immobilised on amine-reactive sensors (EDAC/sulfo-NHS), washed with 0.5% SDS; analyte 10 µM Lira; 25 °C; 20 mM Tris-HCl, 140 mM NaCl, 4.9 mM KCl, […] CaCl2, 1 mM MgCl2, pH 7.4; single binding site model (1), fitted for each analyte concentration; apparent constants
[19] = target: amyloid-β peptide, residues 1-42 (human) (UniProt P05067); experiment: as above
[20] = target: amyloid-β peptide, residues 1-40 (human) (UniProt P05067); experiment: BLI; Aβ40/Aβ42 immobilised on amine-reactive sensors (EDAC/sulfo-NHS), washed with 0.5% SDS; analyte Sema, 17 µM on Aβ40 and 38 µM on Aβ42; 25 °C; 20 mM HEPES-KOH, 140 mM NaCl, 4.9 mM KCl, […] CaCl2, 1 mM MgCl2, pH 7.4; heterogeneous ligand scheme (2)
[21] = target: amyloid-β peptide, residues 1-42 (human) (UniProt P05067); experiment: as above
semaglutide (human) = experiment: dynamic light scattering; 12 µM Sema; 25 °C; 25 mM Tris-HCl, 140 mM NaCl, 4.9 mM KCl, […] CaCl2, 1 mM MgCl2, pH 7.4; degree of multimerization MWRh/MWm

## exenatide (from UniProt P26349 48-87) (peptide)
Exenatide [1]
  stoichiometry N: 1.6
[2]
  Kd: 4 µM and 15 µM
[3]
  Kd: 4 µM and 15 µM
[4]
  Kd: 1000 nM
[5]
  Kd: 1000 nM
Exenatide [6]
  stoichiometry N: 5.88
Exenatide [7]
  stoichiometry N: 2.1
Exenatide [8]
  stoichiometry N: 6.4

## liraglutide (peptide)
Liraglutide (human) [9]
  stoichiometry N: 8.2
[10]
  Kd: 110 nM
  koff: 0.0009 s⁻¹
  kon: 8400 M⁻¹ s⁻¹
[11]
  Kd: 110 nM
  koff: 0.0006 s⁻¹
  kon: 5700 M⁻¹ s⁻¹
[12]
  Kd: 42 nM
  koff: 0.000556 s⁻¹
  kon: 13400 M⁻¹ s⁻¹
[13]
  Kd: 45 nM
  koff: 0.00054 s⁻¹
  kon: 12100 M⁻¹ s⁻¹
Liraglutide (human) [14]
  stoichiometry N: 6.5
[15]
  KD1 (heterogeneous ligand model, site 1): 950 nM
  KD2 (heterogeneous ligand model, site 2): 9.1 µM
  ka1 (heterogeneous ligand model, site 1): 1440 M⁻¹ s⁻¹
  ka2 (heterogeneous ligand model, site 2): 1900 M⁻¹ s⁻¹
  kd1 (heterogeneous ligand model, site 1): 0.00119 s⁻¹
  kd2 (heterogeneous ligand model, site 2): 0.017 s⁻¹
[16]
  KD1 (heterogeneous ligand model, site 1): 520 nM
  KD2 (heterogeneous ligand model, site 2): 5.6 µM
  ka1 (heterogeneous ligand model, site 1): 2240 M⁻¹ s⁻¹
  ka2 (heterogeneous ligand model, site 2): 2900 M⁻¹ s⁻¹
  kd1 (heterogeneous ligand model, site 1): 0.00114 s⁻¹
  kd2 (heterogeneous ligand model, site 2): 0.0164 s⁻¹
Liraglutide (human) [17]
  stoichiometry N: 16.3
[18]
  Kd: 48 nM
  koff: 0.000346 s⁻¹
  kon: 7300 M⁻¹ s⁻¹
[19]
  Kd: 60 nM
  koff: 0.000482 s⁻¹
  kon: 8000 M⁻¹ s⁻¹

## semaglutide (peptide)
[20]
  KD1 (heterogeneous ligand scheme, site 1): 12 µM
  KD2 (heterogeneous ligand scheme, site 2): 16 µM
  ka1 (heterogeneous ligand scheme, site 1): 310 M⁻¹ s⁻¹
  ka2 (heterogeneous ligand scheme, site 2): 5700 M⁻¹ s⁻¹
  kd1 (heterogeneous ligand scheme, site 1): 0.0037 s⁻¹
  kd2 (heterogeneous ligand scheme, site 2): 0.091 s⁻¹
[21]
  KD1 (heterogeneous ligand scheme, site 1): 11 µM
  KD2 (heterogeneous ligand scheme, site 2): 22 µM
  ka1 (heterogeneous ligand scheme, site 1): 582 M⁻¹ s⁻¹
  ka2 (heterogeneous ligand scheme, site 2): 6100 M⁻¹ s⁻¹
  kd1 (heterogeneous ligand scheme, site 1): 0.0064 s⁻¹
  kd2 (heterogeneous ligand scheme, site 2): 0.134 s⁻¹
Semaglutide (human)
  stoichiometry N: 1.9
[15]
  KD1 (heterogeneous ligand model, site 1): 340 nM
  KD2 (heterogeneous ligand model, site 2): 1.2 µM
  ka1 (heterogeneous ligand model, site 1): 9600 M⁻¹ s⁻¹
  ka2 (heterogeneous ligand model, site 2): 39000 M⁻¹ s⁻¹
  kd1 (heterogeneous ligand model, site 1): 0.0032 s⁻¹
  kd2 (heterogeneous ligand model, site 2): 0.0432 s⁻¹
[16]
  KD1 (heterogeneous ligand model, site 1): 340 nM
  KD2 (heterogeneous ligand model, site 2): 0.3 µM
  ka1 (heterogeneous ligand model, site 1): 12600 M⁻¹ s⁻¹
  ka2 (heterogeneous ligand model, site 2): 134000 M⁻¹ s⁻¹
  kd1 (heterogeneous ligand model, site 1): 0.0041 s⁻¹
  kd2 (heterogeneous ligand model, site 2): 0.038 s⁻¹
